Laboratory results from the RNAGym collection of RNA variant scans (doi:10.1093/molbev/msab373).

B1: Azoarcus group I ribozyme (parent)
chain: GUGCCUUGCGCCGGGAAACCACGCAAGGGAUGGUGUCAAAUUCGGCGAAACCUAAGCGCCCGCCCGGGCGUAUGGCAACGCCGAGCCAAGCUUCGGCGCCUGCGCCGAUGAAGGUGUAGAGACUAGACGGCACCCACCUAAGGCAAACGCUAUGGUGAAGGCAUAGUCCAGGGAGUGGCGAAAGUCACACAAACCGG

Variants of: B1
Test: reverse-splicing fitness (ratio to wild type); higher = more active; in vitro selection; Mg2+ level not given
Procedure, shortened: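 An in vitro group I ribozyme library with randomized positions was T7-transcribed and gel-purified. In triplicate, 10 pmol RNA in EPPS pH 7.5 was reacted with 50 pmoles of a 30-nt RNA substrate for 1 h at 37 °C across several added MgCl2 levels (1–48 mM), then stopped with EDTA. Products were reverse transcribed from a substrate-complementary primer, PCR-amplified and sequenced (HiSeq 4000). Fitness is a variant's read proportion after selection over that before, normalised to wild type.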

Q: With GUGCCUUGCGCCGGGAAACCACGCAAGGGAUGGUGUCAAAUUCGGCGAAACCUAAGCGCCCGCCCGGGCGUAUGGCAACGCUGAGCCAAGCUUCGGCGCCUGCGCCGAUGUAGGUGUAGUGACUAGACGGCACCCACCUAAGGCCAACGUUAUGGUGAAGGCAUAGUCUAGGGAGUGGCGAAAGUCACACAAACCGG [C82U A111U A120U A145C C150U C169U] as the variant, how does the reverse-splicing fitness read?
A: 0.00288

Q: For GUGCCUUGCGCCGGGAAACCACGCAAGGGAUGGUGUCAAAUUCGGCGAAACCUAAGCGCCCGCCCGGGCGUAUGGCAACGCUGAGCCAAGCUUCGGCGCCUGCGCCGAUGUAGGUGUAGUGACUAGACGGCACCCACCUAAGGCCAACGCUAUGGUGAAGGCAUAGUCGAGGGAGCGGCGAAAGUCACACAAACCGG [C82U A111U A120U A145C C169G U176C], which reverse-splicing fitness is on record?
A: 0.00221

Q: With GUGCCUUGCGCCGGGAAACCACGCAAGGGAUGGUGUCAAAUUCGGCGAAACCUAAGCGCCCGCCCGGGCGUAUGGCAACGCUGAGCCAAGCUUCGGCGCCUGCGCCGAUGUAGGUGUAGUGACUAGACGGCACCCACCUAAGGCCAACGCUAUGGUGAAGGCAUAGUCGAGGGAGAGGCGAAAGUCACACAAACCGG [C82U A111U A120U A145C C169G U176A] as the variant, how does the reverse-splicing fitness read?
A: 0.00238

Q: For GUGCCUUGCGCCGGGAAACCACGCAAGGGAUGGUGUCAAAUUCGGCGAAACCUAAGCGCCCGCCCGGGCGUAUGGCAACGCUGAGCCAAGCUUCGGCGCCUGCGCCGAUGUAGGUGUAGUGACUAGACGGCACCCACCUAAGGCCAACGUUAUGGUGAAGGCAUAGUCGAGGGAGGGGCGAAAGUCACACAAACCGG [C82U A111U A120U A145C C150U C169G U176G], which reverse-splicing fitness is on record?
A: 0.00171

Q: With GUGCCUUGCGCCGGGAAACCACGCAAGGGAUGGUGUCAAAUUCGGCGAAACCUAAGCGCCCGCCCGGGCGUAUGGCAACGCUGAGCCAAGCUUCGGCGCCUGCGCCGAUGUAGGUGUAGUGACUAGACGGCACCCACCUAAGGCCAACGUUAUGGUGAAGGCAUAGUCCAGGGAGGGGCGAAAGUCACACAAACCGG [C82U A111U A120U A145C C150U U176G] as the variant, how does the reverse-splicing fitness read?
A: 0.0026

Q: With GUGCCUUGCGCCGGGAAACCACGCAAGGGAUGGUGUCAAAUUCGGCGAAACCUAAGCGCCCGCCCGGGCGUAUGGCAACGCUGAGCCAAGCUUCGGCGCCUGCGCCGAUGUAGGUGUAGUGACUAGACGGCACCCACCUAAGGCCAACGUUAUGGUGAAGGCAUAGUCCAGGGAGAGGCGAAAGUCACACAAACCGG [C82U A111U A120U A145C C150U U176A] as the variant, how does the reverse-splicing fitness read?
A: 0.00399

Q: Which reverse-splicing fitness does the source give for GUGCCUUGCGCCGGGAAACCACGCAAGGGAUGGUGUCAAAUUCGGCGAAACCUAAGCGCCCGCCCGGGCGUAUGGCAACGCUGAGCCAAGCUUCGGCGCCUGCGCCGAUGUAGGUGUAGUGACUAGACGGCACCCACCUAAGGCCAACGUUAUGGUGAAGGCAUAGUCCAGGGAGCGGCGAAAGUCACACAAACCGG [C82U A111U A120U A145C C150U U176C] here?
A: 0.00469

Q: Which reverse-splicing fitness does the source give for GUGCCUUGCGCCGGGAAACCACGCAAGGGAUGGUGUCAAAUUCGGCGAAACCUAAGCGCCCGCCCGGGCGUAUGGCAACGCUGAGCCAAGCUUCGGCGCCUGCGCCGAUGUAGGUGUAGUGACUAGACGGCACCCACCUAAGGCCAACGCUAUGGUGAAGGCAUAGUCAAGGGAGAGGCGAAAGUCACACAAACCGG [C82U A111U A120U A145C C169A U176A] here?
A: 0.00226

Q: With GUGCCUUGCGCCGGGAAACCACGCAAGGGAUGGUGUCAAAUUCGGCGAAACCUAAGCGCCCGCCCGGGCGUAUGGCAACGCUGAGCCAAGCUUCGGCGCCUGCGCCGAUGUAGGUGUAGUGACUAGACGGCACCCACCUAAGGCCAACGCUAUGGUGAAGGCAUAGUCAAGGGAGCGGCGAAAGUCACACAAACCGG [C82U A111U A120U A145C C169A U176C] as the variant, how does the reverse-splicing fitness read?
A: 0.00199

Q: For GUGCCUUGCGCCGGGAAACCACGCAAGGGAUGGUGUCAAAUUCGGCGAAACCUAAGCGCCCGCCCGGGCGUAUGGCAACGCUGAGCCAAGCUUCGGCGCCUGCGCCGAUGUAGGUGUAGUGACUAGACGGCACCCACCUAAGGCCAACGCUAUGGUGAAGGCAUAGUCAAGGGAGGGGCGAAAGUCACACAAACCGG [C82U A111U A120U A145C C169A U176G], which reverse-splicing fitness is on record?
A: 0.00173

Q: With GUGCCUUGCGCCGGGAAACCACGCAAGGGAUGGUGUCAAAUUCGGCGAAACCUAAGCGCCCGCCCGGGCGUAUGGCAACGCUGAGCCAAGCUUCGGCGCCUGCGCCGAUGUAGGUGUAGUGACUAGACGGCACCCACCUAAGGCCAACGCUAUGGUGAAGGCAUAGUCGAGGGAGUGGCGAAAGUCACACAAACCGG [C82U A111U A120U A145C C169G] as the variant, how does the reverse-splicing fitness read?
A: 0.00316

Q: Which reverse-splicing fitness does the source give for GUGCCUUGCGCCGGGAAACCACGCAAGGGAUGGUGUCAAAUUCGGCGAAACCUAAGCGCCCGCCCGGGCGUAUGGCAACGCUGAGCCAAGCUUCGGCGCCUGCGCCGAUGUAGGUGUAGUGACUAGACGGCACCCACCUAAGGCCAACGCUAUGGUGAAGGCAUAGUCAAGGGAGUGGCGAAAGUCACACAAACCGG [C82U A111U A120U A145C C169A] here?
A: 0.00225

Q: With GUGCCUUGCGCCGGGAAACCACGCAAGGGAUGGUGUCAAAUUCGGCGAAACCUAAGCGCCCGCCCGGGCGUAUGGCAACGCUGAGCCAAGCUUCGGCGCCUGCGCCGAUGUAGGUGUAGUGACUAGACGGCACCCACCUAAGGCCAACGUUAUGGUGAAGGCAUAGUCUAGGGAGGGGCGAAAGUCACACAAACCGG [C82U A111U A120U A145C C150U C169U U176G] as the variant, how does the reverse-splicing fitness read?
A: 0.00212

Q: With GUGCCUUGCGCCGGGAAACCACGCAAGGGAUGGUGUCAAAUUCGGCGAAACCUAAGCGCCCGCCCGGGCGUAUGGCAACGCUGAGCCAAGCUUCGGCGCCUGCGCCGAUGUAGGUGUAGUGACUAGACGGCACCCACCUAAGGCCAACGUUAUGGUGAAGGCAUAGUCUAGGGAGCGGCGAAAGUCACACAAACCGG [C82U A111U A120U A145C C150U C169U U176C] as the variant, how does the reverse-splicing fitness read?
A: 0.00256

Q: Which reverse-splicing fitness does the source give for GUGCCUUGCGCCGGGAAACCACGCAAGGGAUGGUGUCAAAUUCGGCGAAACCUAAGCGCCCGCCCGGGCGUAUGGCAACGCUGAGCCAAGCUUCGGCGCCUGCGCCGAUGUAGGUGUAGUGACUAGACGGCACCCACCUAAGGCCAACGUUAUGGUGAAGGCAUAGUCUAGGGAGAGGCGAAAGUCACACAAACCGG [C82U A111U A120U A145C C150U C169U U176A] here?
A: 0.00211
